Results: US20210275641A1 (SYNTHEKINE, published 2021)

T1: IL-2 receptor of the human CD4 positive T cell clone 3F8 (expresses CD25 and CD122) (human, UniProt P01589 22-272; P14784 27-551)
T1 sequence 1: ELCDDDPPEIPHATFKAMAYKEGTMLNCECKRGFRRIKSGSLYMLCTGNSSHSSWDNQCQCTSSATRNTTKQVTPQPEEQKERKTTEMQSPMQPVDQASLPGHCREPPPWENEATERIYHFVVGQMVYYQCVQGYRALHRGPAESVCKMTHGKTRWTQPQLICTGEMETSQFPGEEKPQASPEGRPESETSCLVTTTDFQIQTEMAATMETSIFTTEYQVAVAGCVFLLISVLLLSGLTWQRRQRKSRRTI
T1 sequence 2: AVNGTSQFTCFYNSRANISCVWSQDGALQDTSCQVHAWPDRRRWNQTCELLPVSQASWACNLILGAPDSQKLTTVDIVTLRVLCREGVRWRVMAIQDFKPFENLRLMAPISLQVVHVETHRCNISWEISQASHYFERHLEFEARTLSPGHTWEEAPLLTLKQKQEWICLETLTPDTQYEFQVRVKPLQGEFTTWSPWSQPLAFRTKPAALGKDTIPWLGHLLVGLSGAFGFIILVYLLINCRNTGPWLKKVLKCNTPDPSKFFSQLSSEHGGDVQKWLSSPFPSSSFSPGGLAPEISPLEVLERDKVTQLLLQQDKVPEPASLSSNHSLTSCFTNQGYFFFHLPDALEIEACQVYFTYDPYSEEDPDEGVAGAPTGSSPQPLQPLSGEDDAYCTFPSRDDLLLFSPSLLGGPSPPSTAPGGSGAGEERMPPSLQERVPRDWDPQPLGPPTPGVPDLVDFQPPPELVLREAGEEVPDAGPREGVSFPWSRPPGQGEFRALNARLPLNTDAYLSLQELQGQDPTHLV

T2: human high affinity trimeric IL-2 receptor (CD25/CD122/CD132) (human, UniProt P01589 22-272; P14784 27-551; P31785 23-369)
T2 sequence 1: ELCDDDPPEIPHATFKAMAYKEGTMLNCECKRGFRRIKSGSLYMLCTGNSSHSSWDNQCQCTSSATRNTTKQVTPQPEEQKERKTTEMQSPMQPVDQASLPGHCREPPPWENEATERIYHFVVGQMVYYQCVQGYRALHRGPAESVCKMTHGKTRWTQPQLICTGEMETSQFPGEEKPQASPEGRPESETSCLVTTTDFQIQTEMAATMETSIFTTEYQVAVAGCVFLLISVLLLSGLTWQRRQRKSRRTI
T2 sequence 2: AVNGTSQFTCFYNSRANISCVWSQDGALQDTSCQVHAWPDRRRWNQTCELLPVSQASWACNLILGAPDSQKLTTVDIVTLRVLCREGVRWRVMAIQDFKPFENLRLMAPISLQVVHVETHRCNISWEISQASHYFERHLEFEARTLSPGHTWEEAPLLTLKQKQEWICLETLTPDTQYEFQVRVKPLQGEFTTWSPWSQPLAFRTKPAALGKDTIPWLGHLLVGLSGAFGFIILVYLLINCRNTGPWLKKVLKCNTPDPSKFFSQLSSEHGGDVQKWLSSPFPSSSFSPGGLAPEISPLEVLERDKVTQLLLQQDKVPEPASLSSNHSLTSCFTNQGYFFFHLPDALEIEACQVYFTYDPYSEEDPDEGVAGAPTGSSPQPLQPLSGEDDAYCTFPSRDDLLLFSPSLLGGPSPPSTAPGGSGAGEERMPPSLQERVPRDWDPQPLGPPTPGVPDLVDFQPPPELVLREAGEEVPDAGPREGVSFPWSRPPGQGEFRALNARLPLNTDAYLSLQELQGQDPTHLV
T2 sequence 3: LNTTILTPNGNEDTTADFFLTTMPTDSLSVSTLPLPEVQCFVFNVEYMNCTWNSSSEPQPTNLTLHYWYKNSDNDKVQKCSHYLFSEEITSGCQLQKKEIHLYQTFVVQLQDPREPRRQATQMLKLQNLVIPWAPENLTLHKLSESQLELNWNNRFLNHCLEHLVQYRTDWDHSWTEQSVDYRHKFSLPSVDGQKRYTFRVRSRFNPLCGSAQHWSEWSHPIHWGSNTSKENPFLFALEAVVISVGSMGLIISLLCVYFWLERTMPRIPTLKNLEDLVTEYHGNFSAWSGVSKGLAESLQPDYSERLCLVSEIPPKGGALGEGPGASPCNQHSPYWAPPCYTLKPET


How the values were obtained:
[1] = biological target: T1, IL-2 receptor of the human CD4 positive …; assay: cell-based or functional assay
[2] = biological target: T2, human high affinity trimeric IL-2 …; assay: cell-based or functional assay

Row | Binder | IFNγ Production IC50 (pM), 3F8 cells [1] [pM] | Proliferation IC50 (pM), 3F8 cells [1] [pM] | pSTAT5 ratio YT CD25/YT, dilution factor 2, upper table [2] | pSTAT5 ratio YT CD25/YT, dilution factor 4, upper table [2] | pSTAT5 ratio YT CD25/YT, dilution factor 8, upper table [2] | pSTAT5 ratio YT CD25/YT, dilution factor 16, upper table [2] | pSTAT5 ratio YT CD25/YT, dilution factor 32, upper table [2] | pSTAT5 ratio YT CD25/YT, dilution factor 64, upper table [2] | pSTAT5 ratio YT CD25/YT, dilution factor 128, upper table [2]
1 | MEH (ligand) cytokine: APTSSSTKKTQLQLEHLMLDLEMILNGINNYKNPKLTRMLTFKFYMPKKATELKHLQCLEEELKPLEEVLNLAQSKNFHLRPRDLISNINVIVLELKGSETTFMCEYADETATIVEFLNRWITFCHSIISTLT |  |  | 0.9 | 1.2 | 1.2 | 1.4 | 1.8 | 2.7 | 4.5
2 | hIL2 mutein HEK (L18H, Q22E, Q126K) (ligand) APTSSSTKKTQLQLEHLHLDLEMILNGINNYKNPKLTRMLTFKFYMPKKATELKHLQCLEEELKPLEEVLNLAQSKNFHLRPRDLISNINVIVLELKGSETTFMCEYADETATIVEFLNRWITFCKSIISTLT | 30.4 | 20.9 |  |  |  |  |  |  | 
3 | hIL2 mutein REN (L18R, Q22E, Q126N) (ligand) APTSSSTKKTQLQLEHLRLDLEMILNGINNYKNPKLTRMLTFKFYMPKKATELKHLQCLEEELKPLEEVLNLAQSKNFHLRPRDLISNINVIVLELKGSETTFMCEYADETATIVEFLNRWITFCNSIISTLT | 15.7 | 13.7 |  |  |  |  |  |  | 
4 | AEH (ligand) cytokine: APTSSSTKKTQLQLEHLALDLEMILNGINNYKNPKLTRMLTFKFYMPKKATELKHLQCLEEELKPLEEVLNLAQSKNFHLRPRDLISNINVIVLELKGSETTFMCEYADETATIVEFLNRWITFCHSIISTLT |  |  | 1.3 | 2.6 | 5.7 | 9.7 | 14.1 | 16.6 | 17.9
5 | hIL2 mutein RER (L18R, Q22E, Q126R) (ligand) APTSSSTKKTQLQLEHLRLDLEMILNGINNYKNPKLTRMLTFKFYMPKKATELKHLQCLEEELKPLEEVLNLAQSKNFHLRPRDLISNINVIVLELKGSETTFMCEYADETATIVEFLNRWITFCRSIISTLT | 13.1 | 13.1 |  |  |  |  |  |  | 
6 | hIL2 mutein REY (L18R, Q22E, Q126Y) (ligand) APTSSSTKKTQLQLEHLRLDLEMILNGINNYKNPKLTRMLTFKFYMPKKATELKHLQCLEEELKPLEEVLNLAQSKNFHLRPRDLISNINVIVLELKGSETTFMCEYADETATIVEFLNRWITFCYSIISTLT | 22.1 | 19.3 |  |  |  |  |  |  | 
7 | hIL2 mutein REL (L18R, Q22E, Q126L) (ligand) APTSSSTKKTQLQLEHLRLDLEMILNGINNYKNPKLTRMLTFKFYMPKKATELKHLQCLEEELKPLEEVLNLAQSKNFHLRPRDLISNINVIVLELKGSETTFMCEYADETATIVEFLNRWITFCLSIISTLT | 33.8 | 68.4 |  |  |  |  |  |  | 
8 | hIL2 mutein REM (L18R, Q22E, Q126M) (ligand) APTSSSTKKTQLQLEHLRLDLEMILNGINNYKNPKLTRMLTFKFYMPKKATELKHLQCLEEELKPLEEVLNLAQSKNFHLRPRDLISNINVIVLELKGSETTFMCEYADETATIVEFLNRWITFCMSIISTLT | 12.7 | 32.6 |  |  |  |  |  |  | 

Continued, values first:

Row | IFNγ Production IC50 (pM), 3F8 cells [1] [pM] | Proliferation IC50 (pM), 3F8 cells [1] [pM] | pSTAT5 ratio YT CD25/YT, dilution factor 2, upper table [2] | pSTAT5 ratio YT CD25/YT, dilution factor 4, upper table [2] | pSTAT5 ratio YT CD25/YT, dilution factor 8, upper table [2] | pSTAT5 ratio YT CD25/YT, dilution factor 16, upper table [2] | pSTAT5 ratio YT CD25/YT, dilution factor 32, upper table [2] | pSTAT5 ratio YT CD25/YT, dilution factor 64, upper table [2] | pSTAT5 ratio YT CD25/YT, dilution factor 128, upper table [2] | Binder
9 | 21.2 | 20.8 |  |  |  |  |  |  |  | hIL2 mutein REV (L18R, Q22E, Q126V) (ligand) APTSSSTKKTQLQLEHLRLDLEMILNGINNYKNPKLTRMLTFKFYMPKKATELKHLQCLEEELKPLEEVLNLAQSKNFHLRPRDLISNINVIVLELKGSETTFMCEYADETATIVEFLNRWITFCVSIISTLT
10 |  |  | 1.5 | 3.5 | 7.2 | 13.2 | 16.2 | 17.5 | 18.8 | GEH (ligand) cytokine: APTSSSTKKTQLQLEHLGLDLEMILNGINNYKNPKLTRMLTFKFYMPKKATELKHLQCLEEELKPLEEVLNLAQSKNFHLRPRDLISNINVIVLELKGSETTFMCEYADETATIVEFLNRWITFCHSIISTLT
11 | 4.6 | 15.5 |  |  |  |  |  |  |  | hIL2 mutein VEK (L18V, Q22E, Q126K) (ligand) APTSSSTKKTQLQLEHLVLDLEMILNGINNYKNPKLTRMLTFKFYMPKKATELKHLQCLEEELKPLEEVLNLAQSKNFHLRPRDLISNINVIVLELKGSETTFMCEYADETATIVEFLNRWITFCKSIISTLT
12 | 58.7 | 36 |  |  |  |  |  |  |  | hIL2 mutein EEK (L18E, Q22E, Q126K) (ligand) APTSSSTKKTQLQLEHLELDLEMILNGINNYKNPKLTRMLTFKFYMPKKATELKHLQCLEEELKPLEEVLNLAQSKNFHLRPRDLISNINVIVLELKGSETTFMCEYADETATIVEFLNRWITFCKSIISTLT
13 | 19 | 13.7 |  |  |  |  |  |  |  | hIL2 mutein AEK (L18A, Q22E, Q126K) (ligand) APTSSSTKKTQLQLEHLALDLEMILNGINNYKNPKLTRMLTFKFYMPKKATELKHLQCLEEELKPLEEVLNLAQSKNFHLRPRDLISNINVIVLELKGSETTFMCEYADETATIVEFLNRWITFCKSIISTLT
14 | 18.4 | 33 | 1.4 | 2.9 | 5.9 | 10.1 | 13.5 | 15.3 | 16.8 | hIL2 mutein REE (L18R, Q22E, Q126E) (ligand) APTSSSTKKTQLQLEHLRLDLEMILNGINNYKNPKLTRMLTFKFYMPKKATELKHLQCLEEELKPLEEVLNLAQSKNFHLRPRDLISNINVIVLELKGSETTFMCEYADETATIVEFLNRWITFCESIISTLT
15 |  | 62.8 |  |  |  |  |  |  |  | hIL2 mutein RTK (L18R, Q22T, Q126K) (ligand) APTSSSTKKTQLQLEHLRLDLTMILNGINNYKNPKLTRMLTFKFYMPKKATELKHLQCLEEELKPLEEVLNLAQSKNFHLRPRDLISNINVIVLELKGSETTFMCEYADETATIVEFLNRWITFCKSIISTLT
16 | 8.8 | 10 |  |  |  |  |  |  |  | hIL2 mutein IEK (L18I, Q22E, Q126K) (ligand) APTSSSTKKTQLQLEHLILDLEMILNGINNYKNPKLTRMLTFKFYMPKKATELKHLQCLEEELKPLEEVLNLAQSKNFHLRPRDLISNINVIVLELKGSETTFMCEYADETATIVEFLNRWITFCKSIISTLT
17 | 38.3 | 37.6 |  |  |  |  |  |  |  | hIL2 mutein REF (L18R, Q22E, Q126F) (ligand) APTSSSTKKTQLQLEHLRLDLEMILNGINNYKNPKLTRMLTFKFYMPKKATELKHLQCLEEELKPLEEVLNLAQSKNFHLRPRDLISNINVIVLELKGSETTFMCEYADETATIVEFLNRWITFCFSIISTLT
18 | 17.7 | 14.2 | 1.1 | 1.6 | 2.6 | 4.8 | 7.7 | 11.8 | 13.1 | hIL2 mutein REK (L18R, Q22E, Q126K) (ligand) APTSSSTKKTQLQLEHLRLDLEMILNGINNYKNPKLTRMLTFKFYMPKKATELKHLQCLEEELKPLEEVLNLAQSKNFHLRPRDLISNINVIVLELKGSETTFMCEYADETATIVEFLNRWITFCKSIISTLT
